The source of these data is PMC10189407 (The Journal of Biological Chemistry, 2023).

For this assay, the target named is Aβ(1–28) (Homo sapiens (assumed), UniProt P05067). In words: SPR. (In general: SPR reads the build-up and loss of mass on a sensor chip optically.)
Chain of Aβ(1–28) (P05067 672-699): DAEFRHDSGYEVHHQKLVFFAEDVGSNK

B1: crenezumab G33S(HC)-NEP fusion, IgG-CTF-2 format (antibody, V domains shown)
VH: EVQLVESGGGLVQPGGSLRLSCAASGFTFSSYSMSWVRQAPGKGLELVASINSNGGSTYYPDSVKGRFTISRDNAKNSLYLQMNSLRAEDTAVYYCASGDYWGQGTTVTVSS
VL: DIVMTQSPLSLPVTPGEPASISCRSSQSLVYSNGDTYLHWYLQKPGQSPQLLIYKVSNRFSGVPDRFSGSGSGTDFTLKISRVEAEDVGVYYCSQSTHVPWTFGQGTKVEIK
For B1, the binding result is reported as “binds”.

B2: crenezumab G33S(HC)/S56F(LC)-NEP fusion, IgG-CTF-2 format (antibody, V domains shown)
VH: EVQLVESGGGLVQPGGSLRLSCAASGFTFSSYSMSWVRQAPGKGLELVASINSNGGSTYYPDSVKGRFTISRDNAKNSLYLQMNSLRAEDTAVYYCASGDYWGQGTTVTVSS
VL: DIVMTQSPLSLPVTPGEPASISCRSSQSLVYSNGDTYLHWYLQKPGQSPQLLIYKVSNRFFGVPDRFSGSGSGTDFTLKISRVEAEDVGVYYCSQSTHVPWTFGQGTKVEIK
For the molecule B2, the binding result is recorded as “binds”.
